Data on 13 molecules can be found in paper PMC6379680, “The Leishmania PABP1–eIF4E4 interface: a novel 5′–3′ interaction architecture for trans-spliced mRNAs” (Nucleic Acids Research, 2018).

Substitutions are numbered along the chain they refer to. Names and notes keep the numbering of the source. Ends that are not written are not given here.

The term Kd denotes the concentration at which binding is half-saturated.

Experiment [1] has as its target eIF4E4(iv), an approximately 5 kDa region of the extended N-terminal domain of Leishmania major eIF4E4 (Leishmania major). In words: MST; labelled eIF4E4(iv) held constant, non-labelled PABP1 section varied (16 tubes); Nanotemper Monolith NT.115.
The target of experiment [2] is full-length Leishmania eIF4G3 (Leishmania major) (UniProt Q4QEK5). In words: fluorescence polarisation; fluorescence anisotropy, PTI QuantaMaster; Alexa-647-labelled eIF4G3, eIF4E4(v)::PABP1(J) added.
In experiment [3] the target is eIF4G (Saccharomyces cerevisiae) (UniProt P39935). The note with it: cited from earlier work.
Experiment [4] has as its target T1, PABP1(J), the PABC domain of Leishmania major PABP1 prepared as segment J (Leishmania major, UniProt E9AFX7 482-560).
T1 construct: 15N,13C-labelled form used in NMR; also called PABP1 PABC domain; PABC1; source: E. coli NiCo21(DE3), synthetic reading frame, purified (cobalt IDA resin, gel filtration); also co-expressed with eIF4E4(v) from a dual expression plasmid
T1 sequence: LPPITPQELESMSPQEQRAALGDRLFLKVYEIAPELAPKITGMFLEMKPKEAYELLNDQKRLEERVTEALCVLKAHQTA
The experiment can be described thus: MST; labelled eIF4E4(iv) held constant, non-labelled PABP1 section varied (16 tubes); Nanotemper Monolith NT.115. To be noted: both partners purified.

Experiment [5] addresses T1, PABP1(J), the PABC domain of Leishmania …. The experiment can be described thus: MST; FITC-labelled synthetic 14mer peptides with PABP1(J). To be noted: both partners purified.
For experiment [6], the target named is Leishmania major eIF4E4 segment (iv) (Leishmania major). In words: SPR; eIF4E4(iv) immobilised by amine coupling on a Biacore CM5 chip, PABP1(J) passed over, Biacore T200; homogeneous 1:1 binding model.
A further experiment concerns the target eIF4E4(iv). The experiment can be described thus: Microscale thermophoresis of mutated PABP1(J) F525A with eIF4E4(iv). The class given is binding, Leishmania major. The protocol: Microscale thermophoresis experiments were performed using eIF4E4(iv) or eIF4G3 labelled with a fluorescent tag (Monolith Protein Labeling Kit Red-Maleimide), or the eIF4G3 peptide […] labeled with fluorescein-5-isothiocyanate. The concentration of the fluorescently labelled protein (eIF4E4(iv)) was held constant, while the concentration of non-labelled ligand protein was varied. The experiment was conducted by preparing 16 tubes with various ratios of the interacting labelled/non-labelled proteins. The solutions were introduced into capillaries, which were then loaded into a Nanotemper Monolith NT.115 instrument for measurement. […] In order to maximise confidence in the calculated dissociation constant values (based on kON and kOFF values), two types of model were fitted to the raw data: a homogeneous 1:1 binding model, and a heterogeneous 1:1 two-ligand model. […] Fluorescence anisotropy measurements were performed using a PTI QuantaMaster fluorimeter. […]
We wanted to establish a quantitative understanding of the relative significance of interactions between the Leishmania cap-binding complex factors eIF4E4, eIF4G3 and PABP1 using protein domains or full-length proteins, rather than peptides. […]
On the technique in general: In MST a laser heats a spot of the sample, and binding alters the fluorescence response.

For another experiment, the system named is PABP1. The experiment can be described thus: Microscale thermophoresis, Alexa-647-labelled eIF4G3 with PABP1. To be noted: Alexa-647-labelled eIF4G3 and PABP1. The class given is binding, Leishmania. The protocol: (§1) Microscale thermophoresis experiments were performed using eIF4E4(iv) or eIF4G3 labelled with a fluorescent tag (Monolith Protein Labeling Kit Red-Maleimide), or the eIF4G3 peptide […] labeled with fluorescein-5-isothiocyanate. The concentration of the fluorescently labelled protein (eIF4E4(iv)) was held constant, while the concentration of non-labelled ligand protein was varied. The experiment was conducted by preparing 16 tubes with various ratios of the interacting labelled/non-labelled proteins. The solutions were introduced into capillaries, which were then loaded into a Nanotemper Monolith NT.115 instrument for measurement. For the SPR experiments, eIF4E4(iv) was immobilized via amine coupling to a Biacore CM5 sensor chip (GE Healthcare Life Sciences) and titrations against PABP1(J) were performed in a Biacore T200 instrument. In order to maximise confidence in the calculated dissociation constant values (based on kON and kOFF values), two types of model were fitted to the raw data: a homogeneous 1:1 binding model, and a heterogeneous 1:1 two-ligand model. […] Fluorescence anisotropy measurements were performed using a PTI QuantaMaster fluorimeter. […]
(§2) Figure 5. Quantitative characterization of interactions of Leishmania cap-complex proteins. […] Fluorescence anisotropy measurements (C) detected binding of Alexa-647-labelled eIF4G3 to the complex eIF4E4(v):PABP1(J). […]

For the next experiment, the target named is eIF4E4(v):PABP1(J). The experiment can be described thus: Fluorescence anisotropy, Alexa-647-labelled eIF4G3 binding to the complex eIF4E4(v):PABP1(J). Also noted: species or system Leishmania. The note with it: Alexa-647-labelled eIF4G3, eIF4E4(v)::PABP1(J) added, read-out: KD (average of calculated KD values). On the procedure: as §1, §2

Sequence of eIF4G (Saccharomyces cerevisiae) (P39935 whole entry, the tested form may be a part): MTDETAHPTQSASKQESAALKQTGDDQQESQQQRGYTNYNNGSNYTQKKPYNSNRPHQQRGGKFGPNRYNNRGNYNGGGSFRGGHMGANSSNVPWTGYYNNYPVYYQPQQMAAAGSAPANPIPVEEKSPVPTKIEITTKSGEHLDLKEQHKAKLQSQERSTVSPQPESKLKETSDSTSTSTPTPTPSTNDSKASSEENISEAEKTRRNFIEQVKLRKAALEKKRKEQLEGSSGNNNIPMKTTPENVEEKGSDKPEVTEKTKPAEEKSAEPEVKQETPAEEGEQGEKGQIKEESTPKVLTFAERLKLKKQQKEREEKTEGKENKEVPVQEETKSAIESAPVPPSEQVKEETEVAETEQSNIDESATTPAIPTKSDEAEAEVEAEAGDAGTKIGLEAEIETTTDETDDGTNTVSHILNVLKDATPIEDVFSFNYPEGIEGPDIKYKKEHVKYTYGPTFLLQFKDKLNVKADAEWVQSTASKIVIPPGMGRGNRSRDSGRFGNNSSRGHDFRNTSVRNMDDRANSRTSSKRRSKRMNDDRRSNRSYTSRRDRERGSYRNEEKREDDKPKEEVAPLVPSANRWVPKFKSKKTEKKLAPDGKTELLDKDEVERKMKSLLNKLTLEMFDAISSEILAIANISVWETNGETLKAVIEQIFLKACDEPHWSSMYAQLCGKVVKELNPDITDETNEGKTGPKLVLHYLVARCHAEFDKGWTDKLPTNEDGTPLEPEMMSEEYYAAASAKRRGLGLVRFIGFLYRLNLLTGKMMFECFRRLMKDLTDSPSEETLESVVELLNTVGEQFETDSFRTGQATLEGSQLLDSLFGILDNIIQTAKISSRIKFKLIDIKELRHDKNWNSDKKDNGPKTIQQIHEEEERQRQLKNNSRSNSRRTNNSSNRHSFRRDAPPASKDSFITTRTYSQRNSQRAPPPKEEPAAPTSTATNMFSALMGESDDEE

Regarding “PABP1(J) F525A (from UniProt E9AFX7) (domain or fragment)”, the Kd in experiment [1] came to 550 nM.
Turning to “heterodimeric complex eIF4E4(v):PABP1(J) (from UniProt E9AFX7 482-560)”, in experiment [2], the Kd was 340 nM.
In the case of eIF4E (from UniProt P07260), the Kd in experiment [3] is 2.3 nM.
With PTRFSPATVPRHHMNPNATEFMPGRRNGPDGGLEALPTSTAD (domain or fragment, also: Alexa 647 label (Red-Maleimide) for MST), the Kd in experiment [4] was found to be 22 nM.

B1: eIF4E4 PAM2-motif FITC-labelled 14mer peptide, F147A (peptide)
peptide: HHMNPNATEAMPGR
modifications: also: FITC label
notes: also called F147A mutant peptide; source: synthetic peptide (Thermo Fisher Scientific, HPLC-purified to 98%)
B1 gave a Kd in experiment [5] of 127 ± 13.4 nM.

B2: eIF4E4 PAM2-motif FITC-labelled 14mer peptide, M148A (peptide)
peptide: HHMNPNATEFAPGR
modifications: also: FITC label
notes: source: synthetic peptide (Thermo Fisher Scientific, HPLC-purified to 98%)
As to B2, binding in [5] was characterised by a dissociation constant (Kd) of 62.8 ± 3.1 nM.

B3: Leishmania major PABP1 segment J (PABC domain) (domain or fragment)
chain: T1 sequence
modifications: here or on the partner: 13C,15N-labelled in the NMR experiment
B3 had a Kd in experiment [6] of 160 nM.

B4: PABP1(J) F525A: PABC domain of Leishmania PABP1 (segment J) with phenylalanine 525 mutated to alanine (protein)
chain: T1 sequence with F44A
B4: the Kd on eIF4E4(iv) (eIF4E4(iv) + PABP1(J) F525A, average of three independent titrations) came out at 550 nM. Further, at eIF4E4(iv) (ratio of KD values), the “KD relative to the non-mutated PABP1(J) value” was 25 times.

B5: eIF4G3: full-length Leishmania eIF4G3, Alexa-647-labelled (protein)
chain: MQFTVEQIRSVRNNYLEPPYPGFSLDEVVRRRRLTQTKLVRGENAWVAKGTAQTTEEWVQRLLHGTLNKLTEENKDIMIDKLLTKELFATEDIMNMVVNIIFKKALDEPENSKLYAGVCHSLALYEAKVLRDGHKGERPQSQLRDAIISTAQHEFRTLSKELSKMEDKSEEELEYERSNVMRRKRSNMRFIGELYLCTALTHSTMFTVMDLTMRCSDKTGFPSSENIELLAALLNTIGDRLDKNHKKTLDPYFTSLENFNKKSDCPYPPRIRFKIMDLLDLRKRGWGLKPKPVKAALPPSHGKDKKYATAPPPKKGGRDQGSAAAASKSWRDAATTKTGTAAAPAPSADKGLNGRGTSSAAPAANTAALSSSAASTAAATAPAGASFRDEASPQVPLVKFELRVASMFQEWVADRTNDVILHWVDQFNTCDRFFESESELCVAVAQEVIHSACTTTRKDAQREAFSFLVVGLYMIDTEVFDGFASALASAIEDGLLEDVPKFGERFMSMLRLTSTEQETRADVYFDAANVLRLTYNRLESPDDSAVDTLMSFWDRVPLPSTDEENMIRMDLDVVYSLCNPEGVQDGLEKLLSRIIHSMLQMQLMDAEVLDEFLCLDVEDGLCAKVIADYKERFPK
modifications: Alexa 647 label (Monolith Protein Labeling Kit Red-Maleimide) in the fluorescence anisotropy and MST experiments; left off: His12, end not stated, kept
notes: full-length Leishmania eIF4G3, Alexa-647-labelled
In the case of B5, the “binding” value in the experiment with PABP1 is “no binding could be detected”. For the same molecule, the Kd at eIF4E4(v):PABP1(J) is 340 nM.

B6: eIF4E4 PAM2-motif FITC-labelled 14mer peptide, E146A (peptide)
peptide: HHMNPNATAFMPGR
modifications: also: FITC label
notes: as for B2
Molecule B6 came in with a Kd in [5] of 163 ± 16.4 nM.

B7: eIF4E4 PAM2-motif FITC-labelled 14mer peptide, M140A (peptide)
peptide: HHANPNATEFMPGR
modifications: also: FITC label
notes: as for B2
As for B7, binding in [5] was put at a Kd of 34.3 ± 1.3 nM.

B8: eIF4E4 PAM2-motif FITC-labelled 14mer peptide, WT (peptide)
peptide: HHMNPNATEFMPGR
modifications: also: FITC label
notes: also called 'wild-type' peptide; 14mer eIF4E4 peptide; source: synthetic peptide (Thermo Fisher Scientific, HPLC-purified to 98%)
For the molecule B8, the affinity in [5], expressed as Kd, was 33 ± 0.9 nM.

B9: eIF4E4 PAM2-motif FITC-labelled 14mer peptide, N143A (peptide)
peptide: HHMNPAATEFMPGR
modifications: also: FITC label
notes: as for B2
On to B9, for which the Kd in experiment [5] came to 69.2 ± 4.9 nM.
